pKd: −log10 of the molar value.

This data set deals with GST-rPfPuf2 (Plasmodium falciparum). Description: EMSA. The following applies: LightShift RNA EMSA binding buffer (salt, pH not given), 5% glycerol, 2 ug tRNA per 20 ul, RNase inhibitor, 2.5 nM RNA, 0.25-400 nM rPfPuf2, room temperature ….
As to “UUCUCAUUUCCUAAUAAAUUGUUGUGAAAACAA [pfs25 RNA1M]”, the pKd was 6.77. Regarding “GAAAUGUUCUUUUGUAAUUAUAUUUUGUUCGAUGAUUC [pfs28 RNA1]”, the pKd is 8.17. Under “GAAAUGUUCUUUUCCAAUUAUAUUUUGUUCGAUGAUUC [pfs28 RNA1M]” stands 6.85; under “UUCUCAUUUGUUAAUAAAUUGUUGUGAAAACAA [pfs25 RNA1]”, 7.94.
